This is an account of results in the supplement of paper PMC10567573.

First the molecules themselves.
B1: TCEB3B (parent)
chain: STTALGDKQRKANESKGTRESWDS
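Also: lentivirally expressed fusions sorted by FACS into six bins by GFP to DsRed ratio, PSI derived from sequencing read proportions per bin multiplied by bin number.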

The variants in the data set derive from B1. In words: protein stability index of a GFP-peptide fusion (GPS, HEK-293T) (PSI 1-6); higher = more stable. Particulars: c terminus: a fixed tail appended.
In the case of STTALGDKQRKAFESKGTRESWDS, the protein stability index was found to be 3.67.

With STTALGDKQRKADESKGTRESWDS, the protein stability index was 4.64.

On to STTALGDKQRKACESKGTRESWDS, for which the protein stability index worked out at 3.83.

Turning to STTALGDKQRKAMESKGTRESWDS, the protein stability index was found to be 3.7.

In the case of STTALGDKQRKAKESKGTRESWDS, the protein stability index came to 3.65.

As for STTALGDKQRKARESKGTRESWDS, the protein stability index was found to be 3.12.

Take STTALGDKQRKALESKGTRESWDS: the protein stability index amounted to 3.67.

With STTALGDKQRKAPESKGTRESWDS, the protein stability index amounted to 3.83.

Take STTALGDKQRKASESKGTRESWDS: the protein stability index worked out at 4.14.

On to STTALGDKQRKAHESKGTRESWDS, for which the protein stability index amounted to 3.35.

Consider STTALGDKQRKAVESKGTRESWDS, for which the protein stability index stood at 4.12.

In the case of STTALGDKQRKATESKGTRESWDS, the protein stability index is 3.78.

On to STTALGDKQRKAQESKGTRESWDS, for which the protein stability index amounted to 4.1.

Take STTALGDKQRKAAESKGTRESWDS: the protein stability index came to 3.91.

As to STTALGDKQRKAWESKGTRESWDS, the protein stability index is 3.09.

Regarding STTALGDKQRKAEESKGTRESWDS, the protein stability index is 4.87.

For STTALGDKQRKAGESKGTRESWDS, the protein stability index was determined as 3.45.

On to STTALGDKQRKAYESKGTRESWDS, for which the protein stability index turned out to be 3.22.

For the variant STTALGDKQRKRNESKGTRESWDS, the protein stability index was 3.56.

For the variant STTALGDKQRKWNESKGTRESWDS, the protein stability index is 3.34.

Regarding STTALGDKQRKENESKGTRESWDS, the protein stability index was determined as 4.49.

As to STTALGDKQRKHNESKGTRESWDS, the protein stability index was found to be 3.88.

STTALGDKQRKSNESKGTRESWDS: the protein stability index was 4.3.

Regarding STTALGDKQRKQNESKGTRESWDS, the protein stability index is 3.92.

With STTALGDKQRKPNESKGTRESWDS, the protein stability index was determined as 4.17.

As for STTALGDKQRKCNESKGTRESWDS, the protein stability index amounted to 3.99.

In the case of STTALGDKQRKKNESKGTRESWDS, the protein stability index is 3.13.

On to STTALGDKQRKDNESKGTRESWDS, for which the protein stability index came to 4.36.

Consider STTALGDKQRKLNESKGTRESWDS, for which the protein stability index worked out at 4.03.

On to STTALGDKQRKTNESKGTRESWDS, for which the protein stability index was 3.59.

As for STTALGDKQRKINESKGTRESWDS, the protein stability index was determined as 3.63.

Turning to STTALGDKQRKFNESKGTRESWDS, the protein stability index was determined as 3.76.

Take STTALGDKQRKGNESKGTRESWDS: the protein stability index is 4.21.

STTALGDKQRKVNESKGTRESWDS: the protein stability index was found to be 3.88.

For the variant STTALGDKQRKNNESKGTRESWDS, the protein stability index was 4.2.

Regarding STTALGDKQRKMNESKGTRESWDS, the protein stability index came to 3.83.

For the variant STTALGDKQRKYNESKGTRESWDS, the protein stability index was 3.4.

STTALGDKQRKANESKGRRESWDS: the protein stability index came to 3.76.

Take STTALGDKQRKANESKGQRESWDS: the protein stability index amounted to 4.03.

Take STTALGDKQRKANESKGARESWDS: the protein stability index amounted to 4.15.

Take STTALGDKQRKANESKGNRESWDS: the protein stability index worked out at 4.09.

Regarding STTALGDKQRKANESKGSRESWDS, the protein stability index was 4.

Regarding STTALGDKQRKANESKGDRESWDS, the protein stability index was 4.05.

Consider STTALGDKQRKANESKGYRESWDS, for which the protein stability index amounted to 3.8.

With STTALGDKQRKANESKGWRESWDS, the protein stability index amounted to 3.

In the case of STTALGDKQRKANESKGKRESWDS, the protein stability index turned out to be 3.61.

As to STTALGDKQRKANESKGFRESWDS, the protein stability index stood at 3.46.

As for STTALGDKQRKANESKGCRESWDS, the protein stability index stood at 4.19.

Take STTALGDKQRKANESKGGRESWDS: the protein stability index amounted to 3.81.

As to STTALGDKQRKANESKGHRESWDS, the protein stability index amounted to 3.79.

In the case of STTALGDKQRKANESKGVRESWDS, the protein stability index turned out to be 4.55.

As to STTALGDKQRKANESKGERESWDS, the protein stability index came to 4.17.

In the case of STTALGDKQRKANESKGLRESWDS, the protein stability index was determined as 3.14.

As for STTALGDKQRKANESKGPRESWDS, the protein stability index amounted to 3.22.

For the variant STTALGDKQRKANESKGMRESWDS, the protein stability index is 3.51.

In the case of STTALGDKQRKANESKGIRESWDS, the protein stability index was determined as 3.31.

STTALGDKQRKANEYKGTRESWDS: the protein stability index is 3.64.

For the variant STTALGDKQRKANEKKGTRESWDS, the protein stability index was 4.

For the variant STTALGDKQRKANEVKGTRESWDS, the protein stability index was determined as 3.38.

For STTALGDKQRKANEDKGTRESWDS, the protein stability index stood at 4.93.

Take STTALGDKQRKANEGKGTRESWDS: the protein stability index amounted to 4.2.

As for STTALGDKQRKANEPKGTRESWDS, the protein stability index stood at 4.34.

As for STTALGDKQRKANEWKGTRESWDS, the protein stability index was 3.72.

In the case of STTALGDKQRKANENKGTRESWDS, the protein stability index was determined as 4.24.

Consider STTALGDKQRKANEMKGTRESWDS, for which the protein stability index turned out to be 3.98.

For the variant STTALGDKQRKANEHKGTRESWDS, the protein stability index worked out at 3.93.

With STTALGDKQRKANEAKGTRESWDS, the protein stability index is 4.69.

With STTALGDKQRKANEFKGTRESWDS, the protein stability index was 3.94.

With STTALGDKQRKANEQKGTRESWDS, the protein stability index worked out at 4.03.

STTALGDKQRKANEEKGTRESWDS: the protein stability index was 4.97.

For the variant STTALGDKQRKANELKGTRESWDS, the protein stability index worked out at 3.52.

With STTALGDKQRKANERKGTRESWDS, the protein stability index came to 3.65.

On to STTALGDKQRKANETKGTRESWDS, for which the protein stability index stood at 3.38.

For the variant STTALGDKQRKANEIKGTRESWDS, the protein stability index was determined as 3.71.

Regarding STTALGDKQRKANECKGTRESWDS, the protein stability index is 3.58.

For STTALGDKQRKANESKRTRESWDS, the protein stability index was found to be 3.97.

As to STTALGDKQRKANESKKTRESWDS, the protein stability index stood at 3.65.

With STTALGDKQRKANESKETRESWDS, the protein stability index was determined as 4.78.

Turning to STTALGDKQRKANESKPTRESWDS, the protein stability index is 4.42.

Turning to STTALGDKQRKANESKSTRESWDS, the protein stability index is 3.71.

Consider STTALGDKQRKANESKMTRESWDS, for which the protein stability index is 3.43.

STTALGDKQRKANESKLTRESWDS: the protein stability index was 3.21.

Turning to STTALGDKQRKANESKDTRESWDS, the protein stability index is 4.55.

In the case of STTALGDKQRKANESKWTRESWDS, the protein stability index was found to be 3.51.

For the variant STTALGDKQRKANESKNTRESWDS, the protein stability index came to 3.74.

Regarding STTALGDKQRKANESKCTRESWDS, the protein stability index was found to be 3.8.

Take STTALGDKQRKANESKTTRESWDS: the protein stability index is 3.98.

On to STTALGDKQRKANESKQTRESWDS, for which the protein stability index was 3.88.

Consider STTALGDKQRKANESKITRESWDS, for which the protein stability index stood at 2.92.

Consider STTALGDKQRKANESKATRESWDS, for which the protein stability index was found to be 3.78.

Regarding STTALGDKQRKANESKVTRESWDS, the protein stability index worked out at 3.55.

Consider STTALGDKQRKANESKYTRESWDS, for which the protein stability index was determined as 3.93.

As for STTALGDKQRKANESKHTRESWDS, the protein stability index was found to be 3.93.

Consider STTALGDKQRKANESKFTRESWDS, for which the protein stability index amounted to 3.97.
